# T1: amphyphisin SH3 (AMPH_HUMAN), P49418
# T1 chain: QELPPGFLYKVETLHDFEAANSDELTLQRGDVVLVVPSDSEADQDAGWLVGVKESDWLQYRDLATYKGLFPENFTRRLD
# Molecular target: T1, amphyphisin SH3 (AMPH_HUMAN), P49418
# Experiment: SPOT array
row,Binder,"normalised SPOT signal, Boehringer light units (BLU); mean over the file's lines of this peptide"
1,YYQIIKRPMDLSII [Q9BQQ4 1075-1088],78.4
2,YYLLPERPPYLDKY [Q9UD05 393-407],57.4
3,DDEPPARPPPPPPA [Q9NQC3 135-149],37.6
4,DEPEPPRPRRGSLR [O43157 1891-1904],3590
5,DAYSFKRPDRSKMN [P13611 342-355],543
6,ASLPPPRPQRPAET [Q9UFB1 199-212],210
7,DEAQLSRPKKSSDR [O60481 257-270],51.5
8,ADVDPQRPPRPEVK [Q9ULR6 191-204],2760
9,DAQEIIRPRRSKYF [Q9HCG2 115-128],723
10,DDILINRPAKKHLE [Q9H9F8 116-129],7.5
11,SSGVPGRPPGLEEE [P49810 64-78],50.9
12,DEEKPKRPTRRRRK [O94885 688-701],23100
13,DANRLRRPGGSYPA [Q14767 49-62],24.8
14,ADAEPGRPKKRAHS [Q9P2P0 592-605],120
15,STQGLRRPFGVAVM [Q92608 327-340],8.9
16,YTSKIFRPPRASHS [Q9Y397 160-173],1790
17,DDSVILRPSKSVKL [Q9Y2R2 666-679],119
18,SVGRPTRPSRGPWR [Q9HBQ8 81-94],9540
19,DEVWFKRPDGSKSK [Q9BRI4 246-259],30
20,ASLPPPRPQRPVTK [Q9NQE0 197-210],9900
21,DFPKPKKPPPPAKA [Q9Y5K6 333-347],33

row,Binder,"normalised SPOT signal, Boehringer light units (BLU); mean over the file's lines of this peptide"
1,YTVPPARPPPPLTK [O43308 48-62],211
2,YSSSLERPRKLRAV [O75042 916-929],78.3
3,SRLTLLRPEKDGAA [Q9H7S7 16-29],297
4,SWGGPWRPPPPGFW [Q8TC90 86-100],43.7
5,DADPLKRPTFKQIV [P10721 908-921],39.9
6,DEGSLRRPGRLTST [Q96ML9 142-155],81.1
7,YVDVIKRPLVKNPV [Q9P2Q0 703-716],26.4
8,DEARLRRPPRPSSD [Q9Y2H9 828-841],2750
9,SRLTLLRPKKDGAA [Q9H7S7 172-185],199
10,DESRIRRPMNAFMV [P35713 81-94],69.5
11,DESSPRRPDYLKGL [Q99698 2220-2233],23.9
12,DDLEIVRPARRRTP [Q15598 3286-3299],189
13,DFYEPRRPEDDDPT [Q96IE0 67-80],0
14,STPRPARPPSPTEQ [Q96ML3 75-89],324
15,DSSKLRRPLKRNRI [Q9NVG6 7-20],111
16,DELEPRRPRYRVPD [Q14697 104-117],35.4
17,SRLTLLRPEKDGTA [Q9H7S7 328-341],242
18,DGDPLKRPLLGIVQ [O75060 326-339],18.7
19,SVRGPLRPPVRSPA [Q96H54 9-23],5070
20,SSKEFNRPDKLKAH [Q9BYN7 579-592],132
21,SRNVLRRPFQAQSG [Q12933 37-50],31.6

# Molecular target: endophilin SH3 (SH3G2_HUMAN), Q99962
# Experiment: SPOT array
row,Binder,"normalised SPOT signal, Boehringer light units (BLU); mean over the file's lines of this peptide"
1,YYQIIKRPMDLSII [Q9BQQ4 1075-1088],85.7
2,YYLLPERPPYLDKY [Q9UD05 393-407],108
3,DDEPPARPPPPPPA [Q9NQC3 135-149],54.3
4,DEPEPPRPRRGSLR [O43157 1891-1904],126
5,DAYSFKRPDRSKMN [P13611 342-355],45.4
6,ASLPPPRPQRPAET [Q9UFB1 199-212],81.6
7,DEAQLSRPKKSSDR [O60481 257-270],76.4
8,ADVDPQRPPRPEVK [Q9ULR6 191-204],125
9,DAQEIIRPRRSKYF [Q9HCG2 115-128],165
10,DDILINRPAKKHLE [Q9H9F8 116-129],127
11,SSGVPGRPPGLEEE [P49810 64-78],57.8
12,DEEKPKRPTRRRRK [O94885 688-701],959
13,DANRLRRPGGSYPA [Q14767 49-62],59.6
14,ADAEPGRPKKRAHS [Q9P2P0 592-605],48.3
15,STQGLRRPFGVAVM [Q92608 327-340],27.2
16,YTSKIFRPPRASHS [Q9Y397 160-173],325
17,DDSVILRPSKSVKL [Q9Y2R2 666-679],167
18,SVGRPTRPSRGPWR [Q9HBQ8 81-94],5870
19,DEVWFKRPDGSKSK [Q9BRI4 246-259],60.8
20,ASLPPPRPQRPVTK [Q9NQE0 197-210],5900
21,DFPKPKKPPPPAKA [Q9Y5K6 333-347],8340

row,Binder,"normalised SPOT signal, Boehringer light units (BLU); mean over the file's lines of this peptide"
1,YTVPPARPPPPLTK [O43308 48-62],9170
2,YSSSLERPRKLRAV [O75042 916-929],137
3,SRLTLLRPEKDGAA [Q9H7S7 16-29],71.4
4,SWGGPWRPPPPGFW [Q8TC90 86-100],1290
5,DADPLKRPTFKQIV [P10721 908-921],19.8
6,DEGSLRRPGRLTST [Q96ML9 142-155],28.2
7,YVDVIKRPLVKNPV [Q9P2Q0 703-716],29.7
8,DEARLRRPPRPSSD [Q9Y2H9 828-841],172
9,SRLTLLRPKKDGAA [Q9H7S7 172-185],159
10,DESRIRRPMNAFMV [P35713 81-94],94.4
11,DESSPRRPDYLKGL [Q99698 2220-2233],28
12,DDLEIVRPARRRTP [Q15598 3286-3299],67.6
13,DFYEPRRPEDDDPT [Q96IE0 67-80],50.1
14,STPRPARPPSPTEQ [Q96ML3 75-89],9450
15,DSSKLRRPLKRNRI [Q9NVG6 7-20],167
16,DELEPRRPRYRVPD [Q14697 104-117],26.4
17,SRLTLLRPEKDGTA [Q9H7S7 328-341],112
18,DGDPLKRPLLGIVQ [O75060 326-339],41.8
19,SVRGPLRPPVRSPA [Q96H54 9-23],5540
20,SSKEFNRPDKLKAH [Q9BYN7 579-592],120
21,SRNVLRRPFQAQSG [Q12933 37-50],112
